The data set deals with SstI restriction endonuclease (Streptomyces stanford ATCC 29415). The experiment in a line: cleavage_in_vitro. The following applies: pSst105 crude extract; REact 2 buffer, 37 C, 1 h; assay substrate Ad-2 DNA per Example 1.7.

Some results are limits rather than exact numbers.

Adenovirus-2 DNA showed an activity (units per g cells) greater than 400000.

(Values after US5534428.)
